Data on 3 molecules can be found in PMC3476528.

“And” between values parts separate entries of the source, which are not always exact repeats. Equal values may be shown once.

Experiment [1] has as its target histone H3 peptide 1-21, unmodified, biotinylated, P68431. Kind of experiment: SPR; biotinylated histone H3 peptides immobilised on streptavidin sensor, CHD4 constructs injected at 100 μl/min; 25 °C; 20 mM Tris pH 7.5, 200 mM NaCl, 0.05% polysorbate 20; Kd from the steady-state response, sensorgrams when appropriate globally fitted; three repeats. For orientation: Surface plasmon resonance follows binding to a sensor surface in real time, without labels.

Experiment [2] concerns the target T1, histone H3 peptide 1-21 dimethylated on K9, biotinylated, P68431. The description is as above.
Experiment [3] concerns the target T2, histone H3 peptide 1-21 monomethylated on K9, biotinylated, P68431. The experiment is described as above.
For experiment [4], the target named is T3, histone H3 peptide 1-21 trimethylated on K9, biotinylated, P68431. The description is as above.
In experiment [5] the target is T4, nucleosome core particle reconstituted from recombinant X. laevis histones and a 168 bp fragment of 601-DNA (X. laevis). Kind of experiment: native gel or EMSA; 50 fmol radiolabeled mononucleosomes with increasing amounts of CHD4 constructs, 15 min on ice, 20 Tris-HCl pH 8, 200 mM NaCl, 10% sucrose; 5% native polyacrylamide gel, autoradiography. On the technique in general: In EMSA bound probe runs differently from free probe, usually more slowly.

The target of experiment [6] is T4, nucleosome core particle reconstituted ….
Experiment [7] deals with histone H3 peptide 1-21, unmodified, biotinylated, P68431. Kind of experiment: SPR; as a1 but tPHDtCHD/ATPase injected with added ATP.
For experiment [8], the target named is T1, histone H3 peptide 1-21 dimethylated on …. Described as above.
The target in experiment [9] is T2, histone H3 peptide 1-21 monomethylated …. The description is as above.
Experiment [10] deals with T3, histone H3 peptide 1-21 trimethylated …. The description is as above.

B1: CHD4 tPHDtCHD construct (tandem PHD and tandem chromodomains) (domain or fragment)
chain: YETDHQDYCEVCQQGGEIILCDTCPRAYHMVCLDPDMEKAPEGKWSCPHCEKEGIQWEAKEDNSEGEEILEEVGGDLEEEDDHHMEFCRVCKDGGELLCCDTCPSSYHIHCLNPPLPEIPNGEWLCPRCTCPALKGKVQKILIWKWGQPPSPTPVPRPPDADPNTPSPKPLEGRPERQFFVKWQGMSYWHCSWVSELQLELHCQVMFRNYQRKNDMDEPPSGDFGGDEEKSRKRKNKDPKFAEMEERFYRYGIKPEWMMIHRILNHSVDKKGHVHYLIKWRDLPYDQASWESEDVEIQDYDLFKQSYWNHRELMRGEEGRPGKKLKKVKLRKL
modifications: not checked
The term Kd denotes the constant that tells how readily two partners part at equilibrium. A low value points to higher affinity. The koff is the first-order rate constant of dissociation. A low value points to a long-lived complex. For orientation: kon means the rate constant with which the complex forms. Read a low kon as slow association. Regarding B1, the dissociation constant (Kd) in experiment [1] was 14 µM and 19 µM; in experiment [2], 8.6 µM; in experiment [3] it was 24 µM; in experiment [4], 21 µM and 10 µM. In addition, the off-rate constant (koff) in experiment [1] was found to be 0.68 s⁻¹; in [2], 0.31 s⁻¹. Also, the kon in [1] was 50000 M⁻¹ s⁻¹; in [4] it was 33000 M⁻¹ s⁻¹. Further, in experiment [5], the concentration necessary for binding amounted to 0.5 µM.

B2: CHD4 tPHDtCHD/ATPase construct (minimal construct containing all three domains) (domain or fragment)
chain: YETDHQDYCEVCQQGGEIILCDTCPRAYHMVCLDPDMEKAPEGKWSCPHCEKEGIQWEAKEDNSEGEEILEEVGGDLEEEDDHHMEFCRVCKDGGELLCCDTCPSSYHIHCLNPPLPEIPNGEWLCPRCTCPALKGKVQKILIWKWGQPPSPTPVPRPPDADPNTPSPKPLEGRPERQFFVKWQGMSYWHCSWVSELQLELHCQVMFRNYQRKNDMDEPPSGDFGGDEEKSRKRKNKDPKFAEMEERFYRYGIKPEWMMIHRILNHSVDKKGHVHYLIKWRDLPYDQASWESEDVEIQDYDLFKQSYWNHRELMRGEEGRPGKKLKKVKLRKLERPPETPTVDPTVKYERQPEYLDATGGTLHPYQMEGLNWLRFSWAQGTDTILADEMGLGKTVQTAVFLYSLYKEGHSKGPFLVSAPLSTIINWEREFEMWAPDMYVVTYVGDKDSRAIIRENEFSFEDNAIRGGKKASRMKKEASVKFHVLLTSYELITIDMAILGSIDWACLIVDEAHRLKNNQSKFFRVLNGYSLQHKLLLTGTPLQNNLEELFHLLNFLTPERFHNLEGFLEEFADIAKEDQIKKLHDMLGPHMLRRLKADVFKNMPSKTELIVRVELSPMQKKYYKYILTRNFEALNARGGGNQVSLLNVVMDLKKCCNHPYLFPVAAMEAPKMPNGMYDGSALIRASGKLLLLQKMLKNLKEGGHRVLIFSQMTKMLDLLEDFLEHEGYKYERIDGGITGNMRQEAIDRFNAPGAQQFCFLLSTRAGGLGINLATADTVIIYDSDWNPHNDIQAFSRAHRIGQNKKVMIYRFVTRASVEERITQVAKKKMMLTHLVVRPGL
modifications: not checked
In the case of B2, the Kd was 4.1 µM in experiment [1]; 4.7 µM in experiment [2]; 2.9 µM in [3]; 2.6 µM in experiment [4]; 1.4 µM in experiment [7]; 1.7 µM in experiment [8]. Also, the dissociation constant (Kd) in experiment [9] was 6.9 µM; in experiment [10] it was 0.5 µM. Further, the off-rate (koff) amounted to 0.0135 s⁻¹ in experiment [1]; 0.0056 s⁻¹ in [2]; 0.026 s⁻¹ in experiment [3]; 0.025 s⁻¹ in experiment [4]; 0.0265 s⁻¹ in [7]; 0.0073 s⁻¹ in [8]. The same molecule registered a koff in experiment [10] of 0.018 s⁻¹. In addition, the on-rate constant (kon) came to 3300 M⁻¹ s⁻¹ in experiment [1]; 1200 M⁻¹ s⁻¹ in experiment [2]; 900 M⁻¹ s⁻¹ in [3]; 1000 M⁻¹ s⁻¹ in experiment [4]; 18900 M⁻¹ s⁻¹ in experiment [7]; 4300 M⁻¹ s⁻¹ in experiment [8]. The molecule further registered an association rate constant (kon) in experiment [10] of 36000 M⁻¹ s⁻¹. In experiment [6], the ATPase activity (kcat, phosphate release assay) with 0.32 pmol of mono-nucleosome particles; about 6-fold stimulation is 0.0615 s⁻¹. In addition, the concentration necessary for binding in [5] was found to be 0.06 µM.

B3: CHD4 tandem plant homeodomain zinc fingers (tPHD) construct (domain or fragment)
chain: YETDHQDYCEVCQQGGEIILCDTCPRAYHMVCLDPDMEKAPEGKWSCPHCEKEGIQWEAKEDNSEGEEILEEVGGDLEEEDDHHMEFCRVCKDGGELLCCDTCPSSYHIHCLNPPLPEIPNGEWLCPRCTCPALKGK
modifications: not checked
With B3, the equilibrium dissociation constant (Kd) in [1] was 190 µM and 188 µM; in experiment [2], 63 µM and 51 µM; in [3] it was 42 µM; in [4], 70 µM and 48 µM. For the same molecule, the dissociation rate constant (koff) turned out to be 0.49 s⁻¹ in experiment [1], 0.2 s⁻¹ in experiment [2] and 0.17 s⁻¹ in [4]. Further, the kon in experiment [1] came out at 2600 M⁻¹ s⁻¹; in [2], 3900 M⁻¹ s⁻¹; in experiment [4], 3500 M⁻¹ s⁻¹. In addition, in [5], the concentration necessary for binding lay in the range of 10 to 20 µM.
